Consider two molecules from article PMC4924860, “Environmental Factors Modulating the Stability and Enzymatic Activity of the Petrotoga mobilis Esterase (PmEst)” (PLoS ONE, 2016).

For series [1], the target named is Petrotoga mobilis esterase (PmEst) (Petrotoga mobilis). Description: SEC; Superdex 200 10/300 GL column, calibrated with carbonic anhydrase, ovalbumin, bovine serum albumin, conalbumin and aldolase; purified PmEst in aqueous solution. A general note: SEC sorts molecules by how far they enter the pores of the column.
Substrate in series [2]: CC(=O)Oc1ccc([N+](=O)[O-])cc1
As to the kind of experiment: purified protein. The conditions noted are these: 10 mM sodium phosphate pH 7.4, 500 nM enzyme, acetonitrile from substrate stock, temperature of the kinetics not stated. In kind it is biochemical, Petrotoga mobilis.

Substrate in series [3]: CCCC(=O)Oc1ccc([N+](=O)[O-])cc1
Description: purified protein. In kind it is biochemical, Petrotoga mobilis. The settings on record: 10 mM sodium phosphate pH 7.4, 500 nM enzyme, acetonitrile from substrate stock, temperature of the kinetics not stated.

As to “Petrotoga mobilis esterase (PmEst) (enzyme)”, the stoichiometry N – broadly, a count of units in the complex or per binding partner – in series [1] was 3.

B1: PmEst (Petrotoga mobilis SJ95) (protein)
chain: MALLEVNFMSRSLMRKVPIMVVLPMDKANLSGKSEITDNDNNTFKTLYLLHGIFGNYSDWVSETRIQRLAEGRNLAVVMPSGENSFYLDQPESGNFYGEFIGRELVNITRKMFPLSRKKEDTFIAGLSMGGYGAIRNGLKYHETFGCVAGLSSALNFEQMLDESYQVIACKKSAFGDPKEAILSDKNPKVLVKNIKENPLGQFPKMYMACGTEDNLINSNRDFRDFLIENNVDLTYEEGPGAHTWEFWDTYIEKVLDWLPLKKPS
notes: synthetic gene, modified pET28a, N-terminal His6-SUMO fusion cut by SUMO protease; E. coli Rosetta (DE3); PFAM PF00756 esterase
For the molecule B1, in series [2], the Km (as a rule, the concentration of substrate that gives half-maximal velocity) worked out at 1430 ± 170 µM; the kcat (usually the number of substrate molecules converted per active site and unit of time at saturation) amounted to 29.2 ± 1.2 s⁻¹; the kcat/Km (in general, the turnover number divided by the Michaelis constant) amounted to 20500 ± 1600 M⁻¹ s⁻¹. In series [3], the Km came out at 160 ± 10 µM, the kcat was 14.1 ± 0.29 s⁻¹ and the kcat/Km was determined as 88100 ± 6000 M⁻¹ s⁻¹.
